Square brackets hold non-standard residues; d marks the D form. Peptide text beside a SMILES is read from it. * marks the point of attachment. Oic = O=C(O)[C@@H]1C[C@@H]2CCCC[C@@H]2N1; Cha = N[C@@H](CC1CCCCC1)C(=O)O; Tle = CC(C)(C)[C@H](N)C(=O)O; Nicotinoyl = O=C(c1cccnc1)*; Acm = CC(=O)NC*
Legend:
in vitro = details: for peptide concentration remaining in human serum ± SEM (AUC): 37° C.
Experimental: Serum stability. Human blood serum was prepared using BD Vacutainer→Rapid Serum Tubes (RST) (BD Diagnostics, Franklin Lakes, N.J.) according to manufacturer's recommendations. Serum was harvested and either used fresh or stored at −80° C. Stability of the AzV36-NicL in the human serum was determined as previously described. Briefly, 50 μl of an aqueous peptide stock solution (10 mg/ml) was added to 1.95 ml of 25% pooled, non-heat inactivated human serum in PBS and incubated at 37° C. […] The resulting mixtures were kept at 5° C. for 10 min and then centrifuged at 300 g for 5 min. 100 μl of the supernatants were analyzed using analytical ProStar 210 HPLC system with a ProStar 325 Dual Wavelength detector set at 220 nm and 280 nm (Varian Inc., Palo Alto, Calif.). The mobile phases were: Solvent A, 0.1% TFA (trifluoroacetic acid) in water; solvent B, 0.1% TFA in acetonitrile. Experiments were performed using Vydac 218TP54 C18 column, 4.6×250 mm, 5 μM (Grace Vydac, Hesperia, Calif.) in a linear 0 to 100% gradient of solvent B applied over 100 min at 1 ml/min.

rhEphB4 = biological target: T1, rhEphB4 (Homo sapiens, UniProt P54760); assay: SPR binding to immobilized rhEphB4 (Biacore 3000)
T1 construct: purchased R&D Systems, Inc., Minneapolis, Minn
T1 sequence (P54760 16-987): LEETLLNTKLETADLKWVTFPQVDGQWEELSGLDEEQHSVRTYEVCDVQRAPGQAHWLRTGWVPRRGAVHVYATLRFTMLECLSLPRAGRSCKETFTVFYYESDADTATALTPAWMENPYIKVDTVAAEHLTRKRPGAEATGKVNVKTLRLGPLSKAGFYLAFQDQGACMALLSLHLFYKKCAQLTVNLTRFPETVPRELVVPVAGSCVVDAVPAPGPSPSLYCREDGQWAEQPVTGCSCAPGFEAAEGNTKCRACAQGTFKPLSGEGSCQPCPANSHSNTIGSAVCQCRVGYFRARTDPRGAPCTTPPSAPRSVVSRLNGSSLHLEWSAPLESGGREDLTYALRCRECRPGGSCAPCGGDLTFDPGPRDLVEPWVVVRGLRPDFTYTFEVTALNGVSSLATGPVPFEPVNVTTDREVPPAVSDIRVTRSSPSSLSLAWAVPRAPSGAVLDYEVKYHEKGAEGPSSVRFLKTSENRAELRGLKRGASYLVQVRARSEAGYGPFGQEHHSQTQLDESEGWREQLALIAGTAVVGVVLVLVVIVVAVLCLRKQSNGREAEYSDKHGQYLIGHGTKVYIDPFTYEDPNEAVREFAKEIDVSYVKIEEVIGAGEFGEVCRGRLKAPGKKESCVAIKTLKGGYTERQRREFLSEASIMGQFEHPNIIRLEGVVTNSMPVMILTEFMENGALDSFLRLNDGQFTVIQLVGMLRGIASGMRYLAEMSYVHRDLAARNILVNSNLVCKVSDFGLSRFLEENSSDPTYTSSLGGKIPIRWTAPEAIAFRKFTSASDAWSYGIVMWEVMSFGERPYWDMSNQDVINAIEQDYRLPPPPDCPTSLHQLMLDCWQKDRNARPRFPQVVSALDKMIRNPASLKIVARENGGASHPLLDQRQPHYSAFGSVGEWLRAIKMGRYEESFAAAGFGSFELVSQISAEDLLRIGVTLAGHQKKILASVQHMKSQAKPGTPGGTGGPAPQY
Experimental: (§1) Binding to selected ephrin receptors was measured by surface plasmon resonance on a Biacore3000 instrument. Commercially available ephrin receptors: EphA2, EphB2 and EphB4 (R&D Systems) were immobilized on a CM-5 chip by amine coupling and tested peptides were passed over a chip surface as analytes.
(§2) Binding studies. Binding studies were performed by surface plasmon resonance (SPR) on a BIAcore 3000 system (BiaCore AB, Piscataway, N.J.). BIAcore CM5 sensor chips were utilized in all experiments. Binding studies were performed in HBS-EP running buffer (pH=7.4) containing 10 mM HEPES, 150 mM NaCl, 3 mM EDTA, and 0.005% polysorbate 20. Commercially available ephrin receptors: EphA2, EphB2 and EphB4 (R&D Systems, Inc., Minneapolis, Minn.) were immobilized on a CM5 sensor chip using the amine coupling method. The chip was activated by mixing 400 mM N-ethyl-N-(3-dimethylaminopropyl)-carbodiimide hydrochloride and 100 mM N-hydroxysuccinimide. Residual reactive groups on the chip surface were blocked using 1.0 M ethanolamine/HCl (pH=8.5). The flow cell-1 chip, which served as a control, lacked immobilized protein but was treated with N-ethyl-N-(3-dimethylaminopropyl)-carbodiimide hydrochloride, N hydroxysuccinimide, and ethanolamine/HCl. Binding signals were corrected for nonspecific binding by subtracting the flow cell-1 signal (blank surface). To regenerate chip surfaces, bound ligands were removed with 10 mM HCl. Data were analyzed with BIAevaluation 4.1 software (Biacore, Piscataway, N.J.).

rhEphA2 = rhEphA2 (Homo sapiens, UniProt P29317); assay: SPR binding to immobilized rhEphA2 (Biacore 3000); parameters: purchased R&D Systems, Inc., Minneapolis, Minn
Experimental: as §1, §2

[1] = Observation of toxicity during the in vivo mouse studies; parameters: species or system C57BL/6 mice; details: 25 mg/kg IP
Experimental: Animal experiments. C57BL/6 gnotobiotic mice (8 weeks old) were obtained from the UCLA AALAC accredited Department of Radiation Oncology Facility and intravenously injected with 5×10^5 cells of syngeneic LLC. Various treatments were initiated 4 days later, after cancer engraftment. In general, each animal received intraperitoneally a total of 500 μg (˜25 mg/kg) of peptide (or equimolar amount of nicotinamide) in 4 daily doses 60 min before local thoracic irradiation (0 or 4 Gy, total dose: 4.4=16 Gy) that was delivered using an Atomic Energy of Canada cesium gamma irradiator with a dose rate of approximately 0.6 Gy/min with the rest of the body shielded. Prior to irradiation animals were anesthetized by intraperitoneal injection of ketamine/xylazine mixture. Animals were sacrificed on the 14th day of the experiment and lung tumor nodules were counted. All experiments were approved by the UCLA Animal Care and Use Committee and conformed to local and national guidelines.
C57BL/6 mice (8 weeks old) were injected subcutaneously with 1.0×10^6 cells of syngeneic LLC (leg). After 10 days, palpable tumors of approximately 5 mm diameter appeared and treatment was initiated. […] Tumor size was assessed every two days and animals sacrificed as necessary according to the UCLA Animal Care guidelines.

[2] = human, 25% pooled, non-heat inactivated human serum in PBS

CC(=O)NCSC[C@H](NC(=O)[C@H](CC1CCCCC1)NC(=O)[C@H](CC1CCCCC1)NC(=O)[C@@H](CCCCNC(=O)c1cccnc1)NC(=O)[C@@H](N)Cc1ccc(O)cc1)C(=O)N[C@H](C(=O)N[C@@H](CC1CCCCC1)C(=O)N1[C@H](C(=O)N[C@H](CCCNC(=N)N)C(=O)N[C@@H](Cc2c[nH]cn2)C(=O)N[C@@H](CCCNC(=N)N)C(=O)N[C@H](C(=O)N[C@@H](CC2CCCCC2)C(=O)N[C@@H](CSCNC(C)=O)C(=O)N[C@H](CCCCN)C(N)=O)[C@@H](C)O)C[C@@H]2CCCC[C@@H]21)C(C)(C)C [AzV36-NicL, YkNic-Cha-Cha-Cam-Tle-Cha-Oic-rHRT-Cha-Cam-k-CONH] (H-Y[dK](Nicotinoyl)[Cha][Cha]C(Acm)[Tle][Cha][Oic][dR]HRT[Cha]C(Acm)[dK]-NH2)
peptide concentration remaining in human serum ± SEM (AUC) (in vitro; 24 h, 25% human serum in PBS): 100±0.64% | peptide concentration remaining in human serum ± SEM (AUC) (in vitro; 6 days): 97.8±2.86% | remaining at 24 h, 0.25 mg/ml (in vitro; [2]): 100 ± 0.64% | remaining at 144 h, 0.25 mg/ml (in vitro; [2]): 97.8 ± 2.86% | Kd (rhEphB4): 5.83 ± 1.4 nM | Kd (rhEphA2): 13.9 ± 2.9 nM | toxic effect of the injections in vivo [1]: no obvious toxic effect
